How the values were obtained:
BMP2 = target: T1, BMP2 (human); assay: SPR
T1 chain: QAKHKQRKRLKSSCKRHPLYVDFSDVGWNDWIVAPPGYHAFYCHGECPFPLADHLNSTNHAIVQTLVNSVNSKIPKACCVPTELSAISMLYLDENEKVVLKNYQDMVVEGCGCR

BMP5 = target: T2, BMP5 (Homo sapiens, UniProt P22003); assay: BMP activity luciferase reporter assay (BRE-luciferase, ID1 promoter) in C2C12 cells; assay type: cell-based, mouse; set-up: purchased R&D Systems 615-BMC-020; details: 200 ng/ml hBMP5, 16 h; VHH, Noggin, Gremlin 500 ng/ml; LDN 0.5 μM; DMH1 0.2 μM
T2 sequence (P22003 317-454): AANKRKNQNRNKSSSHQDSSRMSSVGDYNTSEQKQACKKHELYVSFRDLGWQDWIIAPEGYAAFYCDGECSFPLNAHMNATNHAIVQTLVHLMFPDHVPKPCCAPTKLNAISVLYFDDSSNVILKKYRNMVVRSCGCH
Procedure: One of the most studied BMP target genes is the Inhibitor of Differentiation 1 (ID1). This is an immediate early gene that is activated by binding of the phosphorylated SMADs to its promoter region (López-Rovira et al., 2002). Thus, we employed the BMP-responsive C2C12 cells, which are stably transfected with the BRE-luciferase vector containing the BMP-Responsive-Element (the mouse ID1 promoter) cloned into the pGL3 luciferase vector (Zilberberg 2007). […] C2C12 cells were treated with the different BMPs with or without our VHHs or human Noggin at a concentration of 5 μg/ml. Luciferase activity was measured after 16 hours incubation. Most of the transcriptional data is in concordance with the results obtained with the phosphorylation of SMAD1/5/8.
C2C12 cells were plated in 96-well plates at 5×10^3 cells/well and cells were allowed to attach overnight. 100 μl of DMEM with 0.1% BSA were added in each well. VHH antibodies and human Fc-Noggin at the indicated concentrations were added at the same time. Wells with unstimulated cells were added as controls. […] Luciferase activity was measured by adding 100 μl of luciferase substrate solution from the Bright-Glo™ Luciferase Assay System (Promega Benelux, Leiden, The Netherlands). After 3 minutes of incubation, luciferase activity was measured with Synergy HT Multi-Mode Microplate Reader (Biotek, Winooski, Vt., United States). […]

HT29 cells = assay: Chemosensitivity / cell viability (Presto Blue); assay type: cell-based, human
Procedure: We wanted to determine whether this effect could be attributable to BMP4 that is being secreted by the cancer cells, and if therefore, could be inhibited by our BMP4-specific VHHs. A panel of colorectal cancer cells was tested for the presence of active BMPs in their conditioned media (FIG. 28A). To that end, the C2C12 cells were cultured with supernatants from different cancer cell lines. When normalized for the BMPs present in normal fetal calf serum, we found a high variability in BRE-luciferase activity across cell lines. […] One of those cell lines, HT29, was used to test the effect of BMP4 inhibition in terms of proliferation. No effect was observed when cultured with the VHHs or Noggin alone (data not shown).
HT29 cells were plated in 96-well plates at a density of 10,000 cells per well. […] The VHHs or Noggin were added at the same time at a concentration of 500 ng/ml. Cell viability was measured by adding the Presto Blue Reagent (Invitrogen) for 2 hours at 37° C., after which absorbance was measured at […].

BMP4 = target: T3, BMP4 (Homo sapiens, UniProt P12644); assay: BMP specificity of VHH antibodies (summary of binding and inhibition of BMP function); set-up: purchased R&D systems; key: ●▪: Binding and inhibition of BMP function.; ●□: Binding, but no inhibition.; ○: No binding; details: summary of SPR and functional experiments
T3 sequence (P12644 293-408): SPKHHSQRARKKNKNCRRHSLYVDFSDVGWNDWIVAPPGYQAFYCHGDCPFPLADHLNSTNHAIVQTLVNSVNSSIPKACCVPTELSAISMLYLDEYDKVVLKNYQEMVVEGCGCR
Text: Thus, we have generated several VH Hs that can be classified into four groups (Table 3): BMP4, BMP2/4, BMP2/4/5 and BMP2/4/5/6-specific.

Kd (BMP2) [nM] | inhibition of BMP5 signals, comparison of inhibitors (BMP5) | BMP4: binding and inhibition of BMP function (BMP4) | Molecule | chemosensitivity (cell viability) in combination with Carboplatin, 5′FU or Oxaliplatin (HT29 cells; 500 ng/ml, 48 hours) | effect on HT29 proliferation, alone (HT29 cells; without chemotherapy (data not shown))
0.961 | greatly inhibit |  | hNoggin (protein) QHYLHIRPAPSDNLPLVDLIEHPDPIFDPKEKDLNETLLRSLLGGHYDPGFMATSPPEDRPGGGGGAAGGAEDLAELDQLLRQRPSGAMPSEIKGLEFSEGLAQGKKQRLSKKLRRKLQMWLWSQTFCPVLYAWNDLGSRFWPRYVKVGSCFSKRSCSVPEGMVCKPSKSVHLTVLRWRCQRRGGQRCGWIPIQYPIISECKCSC | not as effective as observed for C4C4 or C8C8 | No effect
 |  | ●▪ | C8E7: E7 linked to C8, hetero-dimer VHH bihead (protein) EVQLVESGGGLVQAGGSLRLSCAASGRTFRINDMGWYRQAPGKSRDMVARITSGGNTNYADSVKGRFTISRDNAKNTVYLQMNSLKPEDTAVYYCNADGLRFDSTRYRPFDSWGQGTQVTVSSGGGGSGGGGSEVQLVESGGGLVQAGGSLRLSCAASGSIRGFVAMAWYRQAPGKQREWVATVTNGGTLYGDSVKGRFTGSRDNAKNTVYLQMNSLKPEDTAVYYCALRQIGASGYDYWGQGTQVTVSS |  | 
